Assay results reported in patent US20120142098A1 (NOVIMMUNE S A, published 2012).

B1: 15C1 humanized VH mutant 1 together with 15C1 humanized VL A26 (antibody, human IgG1, V domains shown)
VH: QVQLQESGPGLVKPSDTLSLTCAVSGYSITGGYSWHWIRQPPGKGLEWMGYIHYSGYTDFNPSLKTRITISRDTSKNQFSLKLSSVTAVDTAVYYCARKDPSDAFPYWGQGTLVTVSS
VL: EIVLTQSPDFQSVTPKEKVTITCRASQSISDHLHWYQQKPDQSPKLLIKYASHAISGVPSRFSGSGSGTDFTLTINSLEAEDAATYYCQNGHSFPLTFGGGTKVEIK
notes: also called version VH mutant 1
B2: C mu 296-318 CH2 chimeric IgG1 15C1 (antibody, V domains shown)
VH: DVQLQESGPDLIQPSQSLSLTCTVTGYSITGGYSWHWIRQFPGNKLEWMGYIHYSGYTDFNPSLKTRISITRDTSKNQFFLQLNSVTTEDTATYYCARKDPSDGFPYWGQGTLVTVSA
VL: DIVMTQSPATLSVTPGDRVSLSCRASQSISDHLHWYQQKSHESPRLLIKYASHAISGIPSRFSGSGSGTDFTLSIKSVEPEDIGVYYCQNGHSFPLTFGAGTKLELK
notes: copies: 2 + 2
B3: B mu 319-340 CH2 chimeric IgG1 15C1 (antibody, V domains shown)
VH: B2 VH
VL: B2 VL
notes: It is built that way here; copies: 2 + 2
B4: A mu 231-261 CH2 chimeric IgG1 15C1 (antibody, V domains shown)
VH: B2 VH
VL: B2 VL
notes: as for B3
B5: chimeric IgG1 15C1 (antibody, V domains shown)
VH: B2 VH
VL: B2 VL
notes: also called chimeric 15C1; 15C1 on a human IgG1 backbone
B6: D mu 262-295 CH2 chimeric IgG1 15C1 (antibody, V domains shown)
VH: B2 VH
VL: B2 VL
notes: copies: 2 + 2
B7: muCH2-chimeric IgG1 15C1 (antibody, V domains shown)
VH: B2 VH
VL: B2 VL
notes: domain: CH1 and hinge; The CH2 domain of human IgG1 is replaced with that of mouse IgG1; Limits are in EU numbering; also called chimeric IgG1 15C1 containing mouse CH2; muCH2 chim 15C1; not shown: mouse IgG1 heavy chain CH2 domain, EU positions 231 to 340; human IgG1 heavy chain CH3 domain (after EU position 340); human Kappa light chain constant region
B8: huCH2-mouse IgG1 15C1 (antibody, V domains shown)
VH: B2 VH
VL: B2 VL
notes: domain: CH1 and hinge; The CH2 domain of mouse IgG1 is replaced with that of human IgG1; Limits are in EU numbering; also called mouse IgG1 15C1 containing human CH2; not shown: human IgG1 heavy chain CH2 domain, EU positions 231 to 340; mouse IgG1 heavy chain CH3 domain (after EU position 340); mouse kappa light chain constant region
B9: chimeric IgG1 15C1 mutant # D (SAAL at EU positions 325 to 328) (antibody, V domains shown)
VH: B2 VH
VL: B2 VL
notes: Positions are in EU numbering; not shown: human IgG1 heavy chain constant region; human Kappa light chain constant region
B10: chimeric IgG1 15C1 mutant # F (SKAF at EU positions 325 to 328) (antibody, V domains shown)
VH: B2 VH
VL: B2 VL
notes: as for B9
B11: chimeric IgG1 15C1 mutant # H (NKAF at EU positions 325 to 328) (antibody, V domains shown)
VH: B2 VH
VL: B2 VL
notes: as for B9
B12: chimeric IgG1 15C1 mutant # E (NAAL at EU positions 325 to 328) (antibody, V domains shown)
VH: B2 VH
VL: B2 VL
notes: as for B9
B13: chimeric IgG1 15C1 mutant # G (NAAF at EU positions 325 to 328) (antibody, V domains shown)
VH: B2 VH
VL: B2 VL
notes: as for B9
B14: chimeric IgG1 15C1 mutant # C (SAAF at EU positions 325 to 328) (antibody, V domains shown)
VH: B2 VH
VL: B2 VL
notes: as for B9
B15: mouse IgG1 15C1 (antibody, V domains shown)
VH: B2 VH
VL: B2 VL
notes: Murine IgG1/K antibody; The hybridoma-derived and the PEAK-cell recombinant forms are treated as one molecule; also called mu15C1; murine 15C1
B16: chimeric MAb with the 15C1 variable region on a human IgG4 backbone (antibody, V domains shown)
VH: B2 VH
VL: B2 VL
notes: also called hIgG4 15C1; human IgG4 version of 15C1

Each binder was assayed against T1, human TLR4/MD2 complex expressed on the cell surface (human, UniProt O00206 24-839; Q9Y6Y9 19-160) (assay: FACS (MFI) on CHO cells expressing human TLR4-MD2; PEAK supernatants at 0.33, 0.11 and 0.04 ug/ml).
T1 construct: also called CHO TLR4/MD2 transfectants
Method: The binding of these mutants was analyzed by FACS on cells expressing recombinant human TLR4-MD2. PEAK cells were co-transfected with 1 ug of combinations of expression vectors encoding 15C1 humanized VH mutant 1 or 2 together with 15C1 humanized VL A26 or 15C1 humanized VH 4-28 together with 15C1 humanized VL mutant 1, 2, 3 or 4 shown in Example 4 using the Trans IT-LT1 transfection reagent (Mirus Bio Corporation, Madison Wis.). All transfections were carried out in duplicates. 72 h post-transfection, PEAK cells supernatants were collected and the concentration of recombinant human IgG1/Kappa measured by ELISA. The antibody concentrations of all the supernatants were then adjusted to 0.33 μg/ml. These supernatants and two serial dilutions of 0.11 and 0.04 ug/ml were then tested for binding to CHO cells expressing human TLR4-MD2 at their surface by FACS. 5×10⁵ cells were incubated with the diluted PEAK supernatant for 1 h at 4° C.

T1 sequence (O00206 24-839 limits assumed, chain 1 of 2): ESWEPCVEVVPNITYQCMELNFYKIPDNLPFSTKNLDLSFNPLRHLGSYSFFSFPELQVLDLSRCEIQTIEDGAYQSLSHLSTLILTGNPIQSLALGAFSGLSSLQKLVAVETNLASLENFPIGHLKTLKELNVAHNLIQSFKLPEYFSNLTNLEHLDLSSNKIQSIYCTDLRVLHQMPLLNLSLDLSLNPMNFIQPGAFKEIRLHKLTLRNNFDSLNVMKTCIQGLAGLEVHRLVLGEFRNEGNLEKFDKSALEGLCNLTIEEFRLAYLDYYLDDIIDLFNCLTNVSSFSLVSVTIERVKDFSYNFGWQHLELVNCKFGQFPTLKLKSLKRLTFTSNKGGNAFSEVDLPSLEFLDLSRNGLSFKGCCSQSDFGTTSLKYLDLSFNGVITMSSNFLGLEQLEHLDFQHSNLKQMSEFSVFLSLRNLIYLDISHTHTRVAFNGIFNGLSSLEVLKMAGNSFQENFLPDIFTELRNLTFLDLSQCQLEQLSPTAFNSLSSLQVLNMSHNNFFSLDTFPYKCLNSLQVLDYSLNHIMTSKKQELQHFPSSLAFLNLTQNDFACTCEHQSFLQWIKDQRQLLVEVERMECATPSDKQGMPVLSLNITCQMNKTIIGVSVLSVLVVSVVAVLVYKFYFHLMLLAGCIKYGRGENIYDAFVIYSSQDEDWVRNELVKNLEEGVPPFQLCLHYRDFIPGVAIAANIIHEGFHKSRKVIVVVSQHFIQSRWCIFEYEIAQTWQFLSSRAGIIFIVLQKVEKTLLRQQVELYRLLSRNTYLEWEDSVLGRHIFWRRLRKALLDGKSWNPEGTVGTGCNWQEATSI
T1 sequence (Q9Y6Y9 19-160 R56G limits assumed, chain 2 of 2): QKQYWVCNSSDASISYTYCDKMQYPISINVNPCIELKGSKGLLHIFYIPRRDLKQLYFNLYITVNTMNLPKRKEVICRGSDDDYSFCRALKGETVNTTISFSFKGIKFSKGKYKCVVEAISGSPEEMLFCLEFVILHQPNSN

Binding result, binds:
B1

The binders below were run against T1, human TLR4/MD2 complex expressed on the … (assay: FACS on CHO stable cell line expressing human TLR4-MD2 complex).
Method: Studies were then designed to evaluate which residues of the mouse CH2 domain are necessary for Fc-mediated inhibitory activity. Starting with the chimeric IgG115C1 containing the full length mouse CH2 domain, the approach was to identify the critical region of the CH2 domain by introducing a maximum number of human residues without observing a loss of the Fc-mediated inhibitory activity. The identification of these critical residues was determined by subdividing the mouse CH2 into 4 parts (A: EU positions 231 to 261; B: EU positions 319 to 340; C: EU positions 296-318 and D: EU positions 262 to 295) and introducing for each of the 4 sub-regions the corresponding CH2 amino acid sequence of a human IgG1 (see FIG. 6A). The sub-division of the mouse CH2 into four subregions was purely based on amino acid sequence homology with the human CH2. The four heavy chain mutants were engineered by overlapping PCR and recombinant MAbs expressed in PEAK. The corresponding antibodies were purified from transfected-cell supernatants by protein G affinity column chromatography and binding to CHO stable cell line expressing human TLR4-MD2 complex on their surface of the following antibodies was determined: muCH2-chimeric IgG1 15C1; chimeric IgG1 15C1; A mu 231-261 CH2 chimeric IgG1 15C1; B mu 319-340 CH2 chimeric IgG1 15C1; C mu 296-318 CH2 chimeric IgG1 15C1; and D mu 262-295 CH2 chimeric IgG1 15C1. 4×10⁵ cells/well were incubated for 30 minutes at 4° C. in 50 μl of phosphate buffered saline (PBS) with 1% bovine serum albumin (PBS-1% BSA) and either serial dilution of the appropriate antibody or an irrelevant human IgG1 isotype control. Cells were washed once with PBS-1% BSA and incubated in the same buffer with FMAT-Blue®-conjugated goat anti-human Kappa light chain antibody (1:250 dilution, Sigma K3502) for 30 minutes at 4° C. Cells were washed twice with PBS-1% BSA and analyzed using a FACScalibur® flow cytometer […] in the FL-4 channel.

Binding result, binds:
B2
B3
B4
B5
B6

These binders were tested against T1, human TLR4/MD2 complex expressed on the … (assay: FACS on CHO TLR4/MD2 transfectants).

Binding result, binds:
B7
B8

The binders below were run against T1, human TLR4/MD2 complex expressed on the … (assay: FACS on CHO stable cell line expressing human TLR4/MD2).

Binding result, binds:
B9
B10
B11
B12
B13
B14

What follows are binders tested against T1, human TLR4/MD2 complex expressed on the … (assay: binding to TLR4/MD-2 transfected CHO cells).

Binding result, binds:
B15
B16
